The target in test [1] is T1, heterodimeric multidrug resistance ABC transporter OmrDE (Omithinimicrobium cerasi strain USBA17B2, UniProt A0A285VW85 1-577; A0A285VWG3 1-661).
T1 sequence (looked up) 1: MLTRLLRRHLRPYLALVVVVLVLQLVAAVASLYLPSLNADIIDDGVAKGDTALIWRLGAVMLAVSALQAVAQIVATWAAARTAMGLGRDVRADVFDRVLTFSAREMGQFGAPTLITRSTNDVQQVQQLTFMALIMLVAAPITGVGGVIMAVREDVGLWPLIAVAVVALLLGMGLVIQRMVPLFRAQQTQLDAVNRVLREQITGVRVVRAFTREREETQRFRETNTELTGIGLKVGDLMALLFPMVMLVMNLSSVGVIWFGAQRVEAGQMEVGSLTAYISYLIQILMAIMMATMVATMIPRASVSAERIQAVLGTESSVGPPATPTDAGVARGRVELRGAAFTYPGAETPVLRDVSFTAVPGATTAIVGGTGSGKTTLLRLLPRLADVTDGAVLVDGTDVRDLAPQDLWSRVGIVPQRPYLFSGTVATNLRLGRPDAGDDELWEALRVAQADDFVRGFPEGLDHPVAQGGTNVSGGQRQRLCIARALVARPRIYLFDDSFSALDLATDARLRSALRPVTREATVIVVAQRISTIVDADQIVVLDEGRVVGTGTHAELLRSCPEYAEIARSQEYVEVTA
T1 sequence (looked up) 2: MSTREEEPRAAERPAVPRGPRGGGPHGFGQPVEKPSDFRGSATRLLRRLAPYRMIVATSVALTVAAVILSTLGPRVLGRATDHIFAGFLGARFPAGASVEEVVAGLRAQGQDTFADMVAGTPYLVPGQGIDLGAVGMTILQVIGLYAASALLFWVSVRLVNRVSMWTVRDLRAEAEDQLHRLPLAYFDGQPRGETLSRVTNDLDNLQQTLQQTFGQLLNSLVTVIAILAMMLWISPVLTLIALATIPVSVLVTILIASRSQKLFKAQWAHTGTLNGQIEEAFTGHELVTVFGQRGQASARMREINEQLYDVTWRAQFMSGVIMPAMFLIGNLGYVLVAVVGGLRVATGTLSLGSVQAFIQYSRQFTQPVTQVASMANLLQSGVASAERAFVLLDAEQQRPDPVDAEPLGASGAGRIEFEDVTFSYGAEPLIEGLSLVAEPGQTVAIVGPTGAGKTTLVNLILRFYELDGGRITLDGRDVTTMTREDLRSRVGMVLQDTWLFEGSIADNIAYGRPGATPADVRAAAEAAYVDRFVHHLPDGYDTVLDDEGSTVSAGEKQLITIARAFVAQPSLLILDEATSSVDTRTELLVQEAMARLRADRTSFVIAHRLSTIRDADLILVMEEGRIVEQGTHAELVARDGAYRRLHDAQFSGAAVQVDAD
Kind of test: cell-based or functional assay.

In test [2] the target is T2, heterodimeric multidrug resistance ABC transporter OmrDE (Omithinimicrobium cerasi strain USBA17B2, UniProt A0A285VW85 1-577; A0A285VWG3 1-661).
T2 chain 1: T1 sequence (looked up) 1
T2 chain 2: T1 sequence (looked up) 2
Kind of test: ITC; replicate #4. In general terms: In ITC the heat of successive injections is recorded.

The target of the next test is T3, OmrD (OmrD::his-tag) (Omithinimicrobium cerasi strain USBA17B2, UniProt A0A285VW85 1-577).
T3 construct: OmrD-His calculated as 62.86 kDa; also called pET21b-OmrD; source: E. coli C43 (DE3); purified (Ni2+-NTA agarose) for ITC; in DDM-solubilized membrane proteins for the His-tag pull-down
T3 sequence (looked up): T1 sequence (looked up) 1
Kind of test: ITC; OcHeR injected into the Omr protein; 25 °C, 500 rpm; buffer SD; MicroCal ITC200; one site binding model (sequential binding site model for R233Q); perfect saturation was not achieved. As to conditions: both partners purified.

For a further test, the target named is T4, OmrE (OmrE-His) (Omithinimicrobium cerasi strain USBA17B2, UniProt A0A285VWG3 1-661).
T4 chain: T1 sequence (looked up) 2
Kind of test: ITC; replicate #3.

The target in test [3] is T5, NBD-truncated OmrDE (OmrD^tcE^tc) (Omithinimicrobium cerasi strain USBA17B2).
T5 chain 1: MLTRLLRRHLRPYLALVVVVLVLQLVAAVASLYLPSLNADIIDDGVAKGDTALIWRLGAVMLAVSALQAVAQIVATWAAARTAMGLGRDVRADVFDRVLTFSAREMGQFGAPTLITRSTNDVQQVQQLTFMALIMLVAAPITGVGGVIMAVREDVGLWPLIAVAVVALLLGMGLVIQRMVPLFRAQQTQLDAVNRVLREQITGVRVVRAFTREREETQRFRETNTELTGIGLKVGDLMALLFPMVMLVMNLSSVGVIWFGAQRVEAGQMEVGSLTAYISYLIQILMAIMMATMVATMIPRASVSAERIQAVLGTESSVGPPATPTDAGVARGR
T5 chain 2: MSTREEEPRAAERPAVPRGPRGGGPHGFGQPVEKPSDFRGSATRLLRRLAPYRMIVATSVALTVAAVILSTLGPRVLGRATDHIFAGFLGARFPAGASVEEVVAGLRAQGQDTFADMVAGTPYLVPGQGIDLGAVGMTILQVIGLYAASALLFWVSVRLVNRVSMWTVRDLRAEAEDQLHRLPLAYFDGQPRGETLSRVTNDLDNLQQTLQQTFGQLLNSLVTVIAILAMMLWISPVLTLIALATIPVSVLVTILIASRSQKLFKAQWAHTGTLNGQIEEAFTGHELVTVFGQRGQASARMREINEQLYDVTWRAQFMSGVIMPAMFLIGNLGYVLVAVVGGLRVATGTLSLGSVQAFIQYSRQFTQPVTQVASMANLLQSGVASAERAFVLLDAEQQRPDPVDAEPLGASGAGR
Kind of test: ITC; replicate #3.

In test [4] the target is T5, NBD-truncated OmrDE (OmrD^tcE^tc). Kind of test: ITC; replicate #1.

The term Kd denotes the equilibrium constant for the complex coming apart. A low value points to a tighter complex.

B1: Omithinimicrobium cerasi strain USBA17B2 heliorhodopsin (OcHeR) WT (natural protein, UniProt A0A285W045 1-266, looked up)
chain: MGSTGTGSTASTTRADESRYAGLRRYNVVAAVVHAAQAVAVVVLATDFTLPMTASYLAGPPGSPPGEAVTLWDVPIPLAIATFLALSALFHVIVASPPFFDRYRRGLAQGHNYFRWVEYSLSSSLMIVIIAQLVGISDVVALLGLFGVNASMILFGWLQEKYHQPGDGGWLPFVFGCLAGAVPWVGIVLYTIAPGSTSGAEPPGFVYGIIVSLFLFFNVFALVQWLQYRPVGRFRDYLLGERLYITLSLVAKSALAWQIFGGTLAT
modifications: retinal Schiff base linked to K252
notes: gene codon-optimized for E. coli and chemically synthesized; source: E. coli C43 (DE3), purified (DDM-solubilized membrane fraction, Ni2+-NTA agarose)
Consider B1, for which the “kcat/Km of ATP hydrolysis of purified OmrDE with OcHeR WT (1:1), absence of light” value in test [1] was found to be 37.7 M^−1 S^−1. In addition, the “kcat/Km of ATP hydrolysis of purified OmrDE with OcHeR WT (1:1), presence of light (532 nm)” value in test [1] came out at 58.4 M^−1 S^−1. The Kd is 62 µM in test [2]; 123 µM with OmrD (OmrD::his-tag); 46 µM with OmrE (OmrE-His); 46 µM in test [3]; 42 µM in test [4].
